# According to patent US20230190943A1, “ALGINIC ACID DERIVATIVE BONDED TO NONSTEROIDAL ANTI-INFLAMMATORY COMPOUND” (MOCHIDA PHARMACEUTICAL CO., LTD., priority 2018, published 2023):
# Assay: Release test of free diclofenac, felbinac, ketoprofen or naproxen in sodium phosphate buffer (Example 23)
# Type: physicochemical
# Procedure: (set temperature of air conditioner). After confirming that no gel was formed, this solution was dispensed. Immediately after the dissolution, the amount of free diclofenac present in each solution was measured by LC-MS/MS as an initial state (day 0 of storage). Also, the other dispensed solutions were incubated at 37° C. for 1, 3, and 7 days, and then the amount of free diclofenac was measured. […] The MS conditions are as follows. • Ionization mode: ESI-negative • Ion source temperature: 300 degrees • Capillary voltage: -4000 V
# [1] = pH 5.3, day 1, free drug (diclofenac, felbinac, ketoprofen or naproxen)
# [2] = pH 5.3, day 3, free drug (diclofenac, felbinac, ketoprofen or naproxen)
# [3] = pH 5.3, day 7, free drug (diclofenac, felbinac, ketoprofen or naproxen)
# [4] = pH 7.0, day 1, free drug (diclofenac, felbinac, ketoprofen or naproxen)
# [5] = pH 7.0, day 3, free drug (diclofenac, felbinac, ketoprofen or naproxen)
# [6] = pH 7.0, day 7, free drug (diclofenac, felbinac, ketoprofen or naproxen)
Substance,Release Rate in Release Test at pH 5.3 [1],Release Rate in Release Test at pH 5.3 [2],Release Rate in Release Test at pH 5.3 [3],Release Rate in Release Test at pH 7.0 [4],Release Rate in Release Test at pH 7.0 [5],Release Rate in Release Test at pH 7.0 [6]
Diclofenac-(2-Amino-1-(4-(Hydroxymethyl)Piperidin-1-Yl)Ethan-1-One)-Alginic Acid Derivative [Compound 58],0.0%,0.2%,0.3%,0.3%,1.3%,3.1%
Diclofenac-(2-Amino-1-(4-Hydroxypiperidin-1-Yl)Ethan-1-One)-Alginic Acid Derivative [Compound 63b],0.1%,0.1%,0.2%,0.7%,1.9%,2.5%
Diclofenac-(2-Amino-N-(1-Hydroxypropan-2-Yl)Acetamide)-Alginic Acid Derivative [Compound 80a],0.2%,0.4%,0.6%,0.8%,2.4%,5.3%
Diclofenac-(2-Amino-N-(1-Hydroxypropan-2-Yl)Acetamide)-Alginic Acid Derivative [Compound 80b],0.2%,0.3%,0.7%,0.7%,2.3%,5.6%
Diclofenac-(2-Amino-N-(2-Hydroxyethyl)Acetamide)-Alginic Acid Derivative [Compound 53a],0.1%,0.4%,0.8%,0.9%,3.7%,10.0%
Diclofenac-(2-Amino-N-(2-Hydroxyethyl)Acetamide)-Alginic Acid Derivative [Compound 53c],0.5%,0.9%,1.0%,0.9%,2.5%,7.4%
Diclofenac-(2-Amino-N-(2-Hydroxyethyl)Acetamide)-Alginic Acid Derivative [Compound 53d],0.1%,0.5%,0.6%,0.7%,3.0%,9.3%
Diclofenac-(2-Amino-N-(2-Hydroxypropyl)Acetamide)-Alginic Acid Derivative [Compound 72a],0.0%,0.1%,0.2%,0.3%,1.0%,2.2%
Diclofenac-(2-Amino-N-(2-Hydroxypropyl)Acetamide)-Alginic Acid Derivative [Compound 72b],0.0%,0.1%,0.2%,0.4%,1.5%,3.7%
Diclofenac-(2-Amino-N-(3-Hydroxypropyl)Acetamide)-Alginic Acid Derivative [Compound 76a],0.1%,0.2%,0.4%,0.5%,1.3%,3.5%
